In patent USRE48267E1, “Variants of C-type natriuretic peptide” (priority 2009, dated 2020):
Bridges are numbered along the chain shown (N, C = ends). Where no end group is shown, it is not given here. The star is where a group is joined. Heptanoyl = CCCCCCC(=O)*

B1: CNP22, K4R, K10R, N-term.--N-term. dimer/Bis-PEO5 (peptide)
peptide: GLSRGCFGLRLDRIGSMSGLGC
modifications: ends and bridges not checked; also: dimer joined N-terminus to N-terminus by Bis-PEO5
B2: CNP22, K4R, K10R, N-term.--N-term. dimer/disuccinimidyl glutarate (peptide)
peptide: GLSRGCFGLRLDRIGSMSGLGC
modifications: ends and bridges not checked; also: dimer joined N-terminus to N-terminus by disuccinimidyl glutarate
B3: CNP53 (peptide)
peptide: DLRVDTKSRAAWARLLQEHPNARKYKGANKKGLSKGCFGLKLDRIGSMSGLGC

target: T1, NPR-B (natriuretic peptide receptor B), murine, expressed endogenously on NIH3T3 cells (murine, UniProt Q6VVW5 17-1047); assay: cell-based or functional assay
T1 sequence (looked up): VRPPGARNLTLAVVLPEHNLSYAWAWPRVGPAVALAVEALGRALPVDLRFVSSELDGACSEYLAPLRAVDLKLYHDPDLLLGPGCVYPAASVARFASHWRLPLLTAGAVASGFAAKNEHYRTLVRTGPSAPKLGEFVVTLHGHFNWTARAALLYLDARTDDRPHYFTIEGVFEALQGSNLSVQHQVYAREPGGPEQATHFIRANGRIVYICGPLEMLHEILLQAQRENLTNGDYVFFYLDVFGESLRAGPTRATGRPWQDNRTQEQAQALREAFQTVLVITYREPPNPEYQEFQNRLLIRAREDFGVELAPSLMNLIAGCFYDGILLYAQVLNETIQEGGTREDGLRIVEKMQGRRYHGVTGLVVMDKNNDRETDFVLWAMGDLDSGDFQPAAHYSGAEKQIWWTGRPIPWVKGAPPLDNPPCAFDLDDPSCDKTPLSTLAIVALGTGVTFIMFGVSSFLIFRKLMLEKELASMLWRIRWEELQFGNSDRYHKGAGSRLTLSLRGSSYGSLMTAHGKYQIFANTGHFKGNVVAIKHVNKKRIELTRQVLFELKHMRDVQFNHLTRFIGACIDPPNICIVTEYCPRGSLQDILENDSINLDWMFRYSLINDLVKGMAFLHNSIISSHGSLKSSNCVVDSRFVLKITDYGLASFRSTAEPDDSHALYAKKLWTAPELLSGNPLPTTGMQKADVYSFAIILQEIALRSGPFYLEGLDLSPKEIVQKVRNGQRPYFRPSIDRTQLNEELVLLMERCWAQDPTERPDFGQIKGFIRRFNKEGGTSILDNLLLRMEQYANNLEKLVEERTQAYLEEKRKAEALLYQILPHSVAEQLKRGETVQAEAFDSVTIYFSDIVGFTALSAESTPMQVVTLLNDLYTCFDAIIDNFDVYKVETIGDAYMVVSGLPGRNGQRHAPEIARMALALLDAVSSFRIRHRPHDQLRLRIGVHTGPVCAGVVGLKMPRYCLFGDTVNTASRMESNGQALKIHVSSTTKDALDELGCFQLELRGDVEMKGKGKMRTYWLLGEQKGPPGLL

Binder | cGMP response rel. to 1 uM CNP22; 10 nM peptide, NIH3T3 cells | cGMP response rel. to 1 uM CNP22; 1 uM peptide, NIH3T3 cells
GLSRGCFGLKLDRIGSMSGLSC [CNP22, K4R, G21S] | 7 rel. to 1 uM CNP22 (100) | 39 rel. to 1 uM CNP22 (100)

target: T1, NPR-B (natriuretic peptide receptor B), …; assay: cell-based or functional assay; remark: another data set of the same source

Binder | cGMP response rel. to 1 uM CNP22; 10 nM peptide, NIH3T3 cells | cGMP response rel. to 1 uM CNP22; 1 uM peptide, NIH3T3 cells
PGQEHPNARKYKGANKKGLSKGCFGLKLDRIGSMSGLGC (ends and bridges not checked; cysteine pairing not given here) [PGQEHPNARKYKGANKK-CNP22 (Pro-Gly-CNP37)] | 49 rel. to 1 uM CNP22 (100) | 103 rel. to 1 uM CNP22 (100)
GHKSEVAHRFKGANKKGLSKGCFGLKLDRIGSMSGLGC [GHKSEVAHRFKGANKK-CNP22 (HSA-CNP27)] | 51 rel. to 1 uM CNP22 (100) | 109 rel. to 1 uM CNP22 (100)
GANPRGLSRGCFGLKLDRIGSMSGLGC [GANPR-CNP22, K4R] | 50 rel. to 1 uM CNP22 (100) | 105 rel. to 1 uM CNP22 (100)
Heptanoyl-ELSKGCFGLKLDRIGSMSGLGC (ends and bridges not checked) [Heptanoic acid (N-term.)-CNP22, G1E] | 32 rel. to 1 uM CNP22 (100) | 84 rel. to 1 uM CNP22 (100)
B1 | 19 rel. to 1 uM CNP22 (100) | 41 rel. to 1 uM CNP22 (100)
RGLSRGCFGLKLDRIGSMSGLGC [R-CNP22, K4R] | 54 rel. to 1 uM CNP22 (100) | 106 rel. to 1 uM CNP22 (100)
GANQQGLSRGCFGLKLDRIGSMSGLGC [GANQQ-CNP22, K4R] | 44 rel. to 1 uM CNP22 (100) | 95 rel. to 1 uM CNP22 (100)
AAWARLLQEHPNARGLSKGCFGLKLDRIGSMSGLGC (ends and bridges not checked; cysteine pairing not given here) [AAWARLLQEHPNAR-CNP22] | 36 rel. to 1 uM CNP22 (100) | 84 rel. to 1 uM CNP22 (100)
GAHHPHEHDTHGANQQGLSKGCFGLKLDRIGSMSGLGC [GAHHPHEHDTHGANQQ-CNP22 (HRGP fragment)] | 14 rel. to 1 uM CNP22 (100) | 77 rel. to 1 uM CNP22 (100)
SPKMVQGSGCFGLKLDRIGSMSGLGCKVLRRH (disulfide 10-26 (inferred)) [SPKMVQGSG-CNP17-KVLRRH (BNP tails)] | 25 rel. to 1 uM CNP22 (100) | 102 rel. to 1 uM CNP22 (100)
GSTGQWHSESGANQQGLSRGCFGLKLDRIGSMSGLGC [GSTGQWHSESGANQQ-CNP22, K4R (fibrinogen)] | 2 rel. to 1 uM CNP22 (100) | 33 rel. to 1 uM CNP22 (100)
ERGLSRGCFGLKLDRIGSMSGLGC [ER-CNP22, K4R] | 38 rel. to 1 uM CNP22 (100) | 113 rel. to 1 uM CNP22 (100)
GANRRGLSRGCFGLKLDRIGSMSGLGC [GANRR-CNP22, K4R] | 59 rel. to 1 uM CNP22 (100) | 105 rel. to 1 uM CNP22 (100)
DLRVDTKSRAAWARGLSKGCFGLKLDRIGSMSGLGC [DLRVDTKSRAAWAR-CNP22] | 34 rel. to 1 uM CNP22 (100) | 101 rel. to 1 uM CNP22 (100)
GHHSHEQHPHGANQQGLSKGCFGLKLDRIGSMSGLGC [GHHSHEQHPHGANQQ-CNP22 (HRGP fragment)] | 16 rel. to 1 uM CNP22 (100) | 95 rel. to 1 uM CNP22 (100)
GQPREPQVYTGANQQGLSRGCFGLKLDRIGSMSGLGC [GQPREPQVYTGANQQ-CNP22, K4R (IgG1(Fc) fragment)] | 2 rel. to 1 uM CNP22 (100) | 32 rel. to 1 uM CNP22 (100)
QEHPNARKYKGANKKGLSKGCFGLKLDRIGSMSGLGC (ends and bridges not checked; cysteine pairing not given here) [QEHPNARKYKGANKK-CNP22 (CNP37)] | 43 rel. to 1 uM CNP22 (100) | 97 rel. to 1 uM CNP22 (100)
GVPQVSTSTGANQQGLSRGCFGLKLDRIGSMSGLGC [GVPQVSTSTGANQQ-CNP22, K4R (HSA fragment)] | 3 rel. to 1 uM CNP22 (100) | 35 rel. to 1 uM CNP22 (100)
GQPREPQVYTLPPSGLSKGCFGLKLDRIGSMSGLGC [GQPREPQVYTLPPS-CNP22 (IgG1(Fc) fragment)] | 23 rel. to 1 uM CNP22 (100) | 72 rel. to 1 uM CNP22 (100)
AAWARLLQEHPNAGLSKGCFGLKLDRIGSMSGLGC (ends and bridges not checked; cysteine pairing not given here) [AAWARLLQEHPNA-CNP22] | 24 rel. to 1 uM CNP22 (100) | 76 rel. to 1 uM CNP22 (100)
GQTHSSGTQSGANQQGLSRGCFGLKLDRIGSMSGLGC [GQTHSSGTQSGANQQ-CNP22, K4R (fibrinogen)] | 12 rel. to 1 uM CNP22 (100) | 115 rel. to 1 uM CNP22 (100)
GERAFKAWAVARLSQGLSKGCFGLKLDRIGSMSGLGC [GERAFKAWAVARLSQ-CNP22 (HSA fragment)] | 15 rel. to 1 uM CNP22 (100) | 87 rel. to 1 uM CNP22 (100)
GANSSGLSRGCFGLKLDRIGSMSGLGC [GANSS-CNP22, K4R] | 27 rel. to 1 uM CNP22 (100) | 88 rel. to 1 uM CNP22 (100)
GQEHPNARKYKGANPKGLSKGCFGLKLDRIGSMSGLGC (ends and bridges not checked; cysteine pairing not given here) [GQEHPNARKYKGANPK-CNP22 (modified CNP37)] | 19 rel. to 1 uM CNP22 (100) | 61 rel. to 1 uM CNP22 (100)
GQEHPNARKYKGANQQGLSKGCFGLKLDRIGSMSGLGC (ends and bridges not checked; cysteine pairing not given here) [GQEHPNARKYKGANQQ-CNP22 (modified CNP37)] | 9 rel. to 1 uM CNP22 (100) | 57 rel. to 1 uM CNP22 (100)
GQEHPNARKYKGANKKGLSKGCFGLKLDRIGSMSGLGC (ends and bridges not checked; cysteine pairing not given here) [GQEHPNARKYKGANKK-CNP22 (Gly-CNP37)] | 50 rel. to 1 uM CNP22 (100) | 98 rel. to 1 uM CNP22 (100)
GQEHPNARKYKGANQKGLSKGCFGLKLDRIGSMSGLGC (ends and bridges not checked; cysteine pairing not given here) [GQEHPNARKYKGANQK-CNP22 (modified CNP37)] | 60 rel. to 1 uM CNP22 (100) | 121 rel. to 1 uM CNP22 (100)
B2 | 19 rel. to 1 uM CNP22 (100) | 44 rel. to 1 uM CNP22 (100)
B3 | 61 rel. to 1 uM CNP22 (100) | 101 rel. to 1 uM CNP22 (100)
PGHKSEVAHRFKGANKKGLSKGCFGLKLDRIGSMSGLGC [PGHKSEVAHRFKGANKK-CNP22 (Pro-HSA-CNP27)] | 32 rel. to 1 uM CNP22 (100) | 107 rel. to 1 uM CNP22 (100)
